Test results taken from PMC5882805.

How the values were obtained:
[1] = target: Islet amyloid polypeptide (IAPP), human (human) (UniProt P10997); experiment: FRET or BRET; diluted-FRET by confocal imaging on GPMVs from INS-1 cells; 50 uM IAPP, 5 uM phospholipid, no ADM-116 (10:1:0); donor:acceptor:unlabelled 1:1:500; first 34 min (small sieve size leakage)
[2] = target: Islet amyloid polypeptide (IAPP), human (human) (UniProt P10997); experiment: FRET or BRET; diluted-FRET inside live INS-1 cells; 10 uM IAPP in the medium, equimolar ADM-116 added 3 h later (rescued condition); donor:acceptor:unlabelled 1:1:100; 24 h and 48 h
[3] = target: Islet amyloid polypeptide (IAPP), human (human) (UniProt P10997); experiment: FRET or BRET; diluted-FRET inside live INS-1 cells; 10 uM IAPP, no ADM-116 (toxic condition); donor:acceptor:unlabelled 1:1:500; 48 h
[4] = target: Islet amyloid polypeptide (IAPP), human (human) (UniProt P10997); experiment: FRET or BRET; diluted-FRET inside live INS-1 cells; 10 uM IAPP, no ADM-116 (toxic condition); donor:acceptor:unlabelled 1:1:500; 24 h

Substance: Islet amyloid polypeptide (IAPP), human (from UniProt P10997 34-70)
- FRETeff (peak 1 of 4, first 34 min) [1]: 0.21
- FRETeff (peak 2 of 4, first 34 min) [1]: 0.36
- FRETeff (peak 3 of 4, first 34 min) [1]: 0.41
- FRETeff (peak 4 of 4, first 34 min) [1]: 0.58
- FRETeff (single peak, rescued with ADM-116) [2]: 0.6
- FRETeff (peak at 48 h) [3]: 0.62
- FRETeff (peak at 24 h) [4]: 0.36
